In patent US20210340530A1 (INTELLIA THERAPEUTICS, published 2021):

Experiments:
[1] = target: T1, VLD-Tetramer (pMHC tetramer with WT1 peptide …); experiment: flow cytometry, VLD-Tetramer staining of engineered T cells; TRAC RNP only
T1 construct: Staining reagent; also called VLD (Wilms' tumor antigen) tetramer; TCR specific pMHC tetramer
Experimental: (§1) Four to 12 days after RNP nucleofection, edited T cells (200 ul/200,000 cells) were collected in a 96 well round bottom plate and spun down at 500 g for 5 minutes. Cells were then resuspended in an antibody mixture containing a combination of antibodies targeting CD3, CD4, CD8, CD45RO, CD45RA, CD27, CCR7, CD62L, and/or the TCR specific pMHC tetramer or TCR specific Vbeta chain antibody. The mixture was incubated for 45 minutes at room temperature in the dark. Samples were spun down at 500 g for 5 minutes, cell pellets collected, and resuspended in 1:10,000 DAPI (Biolegend—#422801) in FACS buffer. Flow cytometry was then performed using the cytoflex according to the manufacturer's instructions.
(§2) T cells were evaluated with additional engineered TCRs for the impact of endogenous beta chains on pairing of both the inserted alpha chain and inserted beta chain. The experiment was performed as described herein except tetramer staining was used to measure MFI and the AAV inserts in Table 31 were used for transduction.

[2] = target: T1, VLD-Tetramer (pMHC tetramer with WT1 …); experiment: flow cytometry, VLD-Tetramer staining of engineered T cells; TRAC + TRBC RNP
Experimental: as §1, §2

Mean % Tetramer+ (CD4+) [1]: 78.9%
Mean % Tetramer+ (CD8+) [1]: 61%
Mean Tetramer MFI (CD4+) [1]: 67300 MFI
Mean Tetramer MFI (CD8+) [1]: 50100 MFI
Mean % Tetramer+ (CD4+) [2]: 81.8%
Mean % Tetramer+ (CD8+) [2]: 76.6%
Mean Tetramer MFI (CD4+) [2]: 231000 MFI
Mean Tetramer MFI (CD8+) [2]: 172000 MFI
B1: TCR-F (WT1-specific T-cell receptor) (TCR, V domains shown)
V domain 1: AQKITQTQPGMFVQEKEAVTLDCTYDTSDPSYGLFWYKQPSSGEMIFLIYQGSYDQQNATEGRYSLNFQKARKSANLVISASQLGDSAMYFCAISGNTPLVFGKGTRLSVIA
V domain 2: AAGVIQSPRHLIKEKRETATLKCYPIPRHDTVYWYQQGPGQDPQFLISFYEKMQSDKGSIPDRFSAQQFSDYHSELNMSSLELGDSALYFCASSLRGGLEKLFFGSGTQLSVLE
notes: also called AV14-TCR-F
